Assay results from paper PMC11273223 (Glycobiology, 2024).

T1: TcCGT1 (Trollius chinensis, UniProt A0A4Y5RXX8)
T1 sequence (A0A4Y5RXX8 2-483): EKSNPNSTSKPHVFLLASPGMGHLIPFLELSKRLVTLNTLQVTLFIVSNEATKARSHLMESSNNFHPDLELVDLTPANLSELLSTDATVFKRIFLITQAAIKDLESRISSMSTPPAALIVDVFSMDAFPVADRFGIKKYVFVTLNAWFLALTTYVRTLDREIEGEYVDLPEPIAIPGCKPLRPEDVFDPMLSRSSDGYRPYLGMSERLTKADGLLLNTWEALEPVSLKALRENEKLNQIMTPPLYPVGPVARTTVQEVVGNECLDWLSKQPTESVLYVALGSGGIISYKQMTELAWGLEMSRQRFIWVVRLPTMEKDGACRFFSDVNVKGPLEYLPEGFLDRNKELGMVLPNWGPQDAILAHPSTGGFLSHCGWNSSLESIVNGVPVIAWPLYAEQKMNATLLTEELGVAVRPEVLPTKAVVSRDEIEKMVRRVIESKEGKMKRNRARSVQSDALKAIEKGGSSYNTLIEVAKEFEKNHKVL

B1: UGT71C1 (Arabidopsis thaliana) (protein)
chain: GKQEDAELVIIPFPFSGHILATIELAKRLISQDNPRIHTITILYWGLPFIPQADTIAFLRSLVKNEPRIRLVTLPEVQDPPPMELFVEFAESYILEYVKKMVPIIREALSTLLSSRDESGSVRVAGLVLDFFCVPMIDVGNEFNLPSYIFLTCSAGFLGMMKYLPERHREIKSEFNRSFNEELNLIPGYVNSVPTKVLPSGLFMKETYEPWVELAERFPEAKGILVNSYTALEPNGFKYFDRCPDNYPTIYPIGPILCSNDRPNLDSSERDRIITWLDDQPESSVVFLCFGSLKNLSATQINEIAQALEIVDCKFIWSFRTNPKEYASPYEALPHGFMDRVMDQGIVCGWAPQVEILAHKAVGGFVSHCGWNSILESLGFGVPIATWPMYAEQQLNAFTMVKELGLALEMRLDYVSEDGDIVKADEIAGTVRSLMDGVDVPKSKVKEIAEAGKEAVDGGSSFLAVKRFIGDLIDGVSISK

Tests used:
[1] = target: T1, TcCGT1; assay: HPLC end-point turnover to O- and C-glucosides; format: biochemical; details: 50 μM aloesone, 200 μM UDP-Glc, 50 mM HEPES, pH 7.4, 30 °C, overnight
[2] = substrate: CC(=O)Cc1cc(=O)c2c(C)cc(O)cc2o1; assay: HPLC initial rates of O-glucoside formation, Michaelis-Menten fit; format: biochemical, Arabidopsis thaliana; details: 0.8 mM UDP-Glc, 50 mM HEPES, 50 mM NaCl, pH 7.4

Molecule	HPLC end-point turnover to O- and C-glucosides [1]	Km [2]	kcat [2]	kcat/Km [2]
CC(=O)Cc1cc(=O)c2c(C)cc(O)cc2o1 [aloesone, 2-acetonyl-7-hydroxy-5-methylchromone]	both C-and O-glucosides were detected in the reaction with TcCGT1	–	–	–
B1	–	50.54 ± 7.29 µM	0.27 ± 0.01 s⁻¹	5000 M⁻¹ s⁻¹
